Reference: patent US20150273048A1

Experiments:
[1] = target: TL-M2e5x fusion protein (Toll-like receptor ligand sequence plus five tandem heterologous M2e domain); test: ELISA on VLPs with 14C2
[2] = target: TL-M2e5x fusion protein (Toll-like receptor ligand sequence plus five tandem heterologous M2e domain); test: ELISA on VLPs and virus with 14C2

Question: Which fold reactivity relative to M2WT VLP [1] does the source give for “Influenza A virus M2 monoclonal antibody 14C2 (Abcam Inc., Cambridge, Mass.)” here?
Answer: > 60 fold

Question: And the fold reactivity relative to A/Philippines/2/82 virus [2]?
Answer: 500 fold
